Reference: PMC6707239 (Scientific Reports, 2019)

Target: the molecule itself
Experiment: dynamic light scattering; Malvern Zetasizer Nano ZS, hsp60 (wild type or mutant) without nucleotide (APO); percent volume

Protein | stoichiometry N
human mitochondrial hsp60 D3G mutant (MitCHAP-60) (natural protein, UniProt P10809 27-573, looked up, human mitochondrial hsp60 (HspD1), mature protein without the mitochondrial signal peptide, disease mutation D3G, cloned into pET-22b; numbers count on: the mature protein; Mutation found in patients with MitCHAP-60; also called D3G-hsp60; source: E. coli BL21 (DE3), purified (ammonium sulfate, anion-exchange, size-exclusion chromatography)) AKGVKFGADARALMLQGVDLLADAVAVTMGPKGRTVIIEQSWGSPKVTKDGVTVAKSIDLKDKYKNIGAKLVQDVANNTNEEAGDGTTTATVLARSIAKEGFEKISKGANPVEIRRGVMLAVDAVIAELKKQSKPVTTPEEIAQVATISANGDKEIGNIISDAMKKVGRKGVITVKDGKTLNDELEIIEGMKFDRGYISPYFINTSKGQKCEFQDAYVLLSEKKISSIQSIVPALEIANAHRKPLVIIAEDVDGEALSTLVLNRLKVGLQVVAVKAPGFGDNRKNQLKDMAIATGGAVFGEEGLTLNLEDVQPHDLGKVGEVIVTKDDAMLLKGKGDKAQIEKRIQEIIEQLDVTTSEYEKEKLNERLAKLSDGVAVLKVGGTSDVEVNEKKDRVTDALNATRAAVEEGIVLGGGCALLRCIPALDSLTPANEDQKIGIEIIKRTLKIPAMTIAKNAGVEGSLIVEKIMQSSSEVGYDAMAGDFVNMVEKGIIDPTKVVRTALLDAAGVASLLTTAEVVVTEIPKEEKDPGMGAMGGMGGGMGGGMF | 14
human mitochondrial hsp60 V72I mutant (SPG13) (natural protein, UniProt P10809 27-573, looked up, human mitochondrial hsp60 (HspD1), mature protein without the mitochondrial signal peptide, disease mutation V72I, cloned into pET-22b; numbers count on: the mature protein; Mutation linked to SPG13; source: E. coli BL21 (DE3), purified (ammonium sulfate, anion-exchange, size-exclusion chromatography)) AKDVKFGADARALMLQGVDLLADAVAVTMGPKGRTVIIEQSWGSPKVTKDGVTVAKSIDLKDKYKNIGAKLIQDVANNTNEEAGDGTTTATVLARSIAKEGFEKISKGANPVEIRRGVMLAVDAVIAELKKQSKPVTTPEEIAQVATISANGDKEIGNIISDAMKKVGRKGVITVKDGKTLNDELEIIEGMKFDRGYISPYFINTSKGQKCEFQDAYVLLSEKKISSIQSIVPALEIANAHRKPLVIIAEDVDGEALSTLVLNRLKVGLQVVAVKAPGFGDNRKNQLKDMAIATGGAVFGEEGLTLNLEDVQPHDLGKVGEVIVTKDDAMLLKGKGDKAQIEKRIQEIIEQLDVTTSEYEKEKLNERLAKLSDGVAVLKVGGTSDVEVNEKKDRVTDALNATRAAVEEGIVLGGGCALLRCIPALDSLTPANEDQKIGIEIIKRTLKIPAMTIAKNAGVEGSLIVEKIMQSSSEVGYDAMAGDFVNMVEKGIIDPTKVVRTALLDAAGVASLLTTAEVVVTEIPKEEKDPGMGAMGGMGGGMGGGMF | 14
